Laboratory results reported in publication PMC4924860, “Environmental Factors Modulating the Stability and Enzymatic Activity of the Petrotoga mobilis Esterase (PmEst)” (PLoS ONE, 2016).

What was measured:
[1] = target: Petrotoga mobilis esterase (PmEst) (Petrotoga mobilis); test: SEC; Superdex 200 10/300 GL column, calibrated with carbonic anhydrase, ovalbumin, bovine serum albumin, conalbumin and aldolase; purified PmEst in aqueous solution
[2] = substrate: CC(=O)Oc1ccc([N+](=O)[O-])cc1; test: purified protein; format: biochemical, Petrotoga mobilis; details: 10 mM sodium phosphate pH 7.4, 500 nM enzyme, acetonitrile from substrate stock, temperature of the kinetics not stated
[3] = substrate: CCCC(=O)Oc1ccc([N+](=O)[O-])cc1; test: purified protein; format: biochemical, Petrotoga mobilis; details: 10 mM sodium phosphate pH 7.4, 500 nM enzyme, acetonitrile from substrate stock, temperature of the kinetics not stated

Molecule	stoichiometry N [1]	Km [2]	kcat [2]	kcat/Km [2]	Km [3]	kcat [3]	kcat/Km [3]
Petrotoga mobilis esterase (PmEst) (enzyme)	3	–	–	–	–	–	–
PmEst (Petrotoga mobilis SJ95) (protein, synthetic gene, modified pET28a, N-terminal His6-SUMO fusion cut by SUMO protease; E. coli Rosetta (DE3); PFAM PF00756 esterase) MALLEVNFMSRSLMRKVPIMVVLPMDKANLSGKSEITDNDNNTFKTLYLLHGIFGNYSDWVSETRIQRLAEGRNLAVVMPSGENSFYLDQPESGNFYGEFIGRELVNITRKMFPLSRKKEDTFIAGLSMGGYGAIRNGLKYHETFGCVAGLSSALNFEQMLDESYQVIACKKSAFGDPKEAILSDKNPKVLVKNIKENPLGQFPKMYMACGTEDNLINSNRDFRDFLIENNVDLTYEEGPGAHTWEFWDTYIEKVLDWLPLKKPS	–	1430 ± 170 µM	29.2 ± 1.2 s⁻¹	20500 ± 1600 M⁻¹ s⁻¹	160 ± 10 µM	14.1 ± 0.29 s⁻¹	88100 ± 6000 M⁻¹ s⁻¹
